Residue numbers refer to the chain shown, from its start.
T1: biotinylated recombinant human IL-12Rβ2 (human, UniProt Q99665 24-622, random biotinylated)
T1 construct: Recombinant protein produced in-house, biotinylated; also called hIL-12RB2; human IL-12RB2
T1 sequence: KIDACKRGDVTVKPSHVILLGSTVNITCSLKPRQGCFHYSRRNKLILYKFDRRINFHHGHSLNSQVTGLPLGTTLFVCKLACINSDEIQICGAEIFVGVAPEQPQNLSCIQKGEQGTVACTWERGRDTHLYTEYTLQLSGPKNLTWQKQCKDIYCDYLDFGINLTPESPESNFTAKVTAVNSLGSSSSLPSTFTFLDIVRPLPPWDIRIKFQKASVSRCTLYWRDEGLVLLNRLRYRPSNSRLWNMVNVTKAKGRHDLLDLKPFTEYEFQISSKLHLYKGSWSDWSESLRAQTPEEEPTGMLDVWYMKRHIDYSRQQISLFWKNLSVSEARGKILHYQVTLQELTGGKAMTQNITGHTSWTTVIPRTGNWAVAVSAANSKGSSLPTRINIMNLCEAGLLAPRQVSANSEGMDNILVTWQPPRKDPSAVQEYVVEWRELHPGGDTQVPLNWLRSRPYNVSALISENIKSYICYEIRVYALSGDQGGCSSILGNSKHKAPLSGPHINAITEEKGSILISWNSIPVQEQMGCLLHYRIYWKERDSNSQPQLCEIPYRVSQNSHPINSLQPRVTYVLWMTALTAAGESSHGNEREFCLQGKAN

T2: biotinylated recombinant mouse IL-12Rβ2 (mouse, UniProt P97378 24-637, random biotinylated)
T2 construct: Recombinant protein produced in-house, biotinylated; also called mIL-12RB2; mouse IL-12RB2
T2 sequence: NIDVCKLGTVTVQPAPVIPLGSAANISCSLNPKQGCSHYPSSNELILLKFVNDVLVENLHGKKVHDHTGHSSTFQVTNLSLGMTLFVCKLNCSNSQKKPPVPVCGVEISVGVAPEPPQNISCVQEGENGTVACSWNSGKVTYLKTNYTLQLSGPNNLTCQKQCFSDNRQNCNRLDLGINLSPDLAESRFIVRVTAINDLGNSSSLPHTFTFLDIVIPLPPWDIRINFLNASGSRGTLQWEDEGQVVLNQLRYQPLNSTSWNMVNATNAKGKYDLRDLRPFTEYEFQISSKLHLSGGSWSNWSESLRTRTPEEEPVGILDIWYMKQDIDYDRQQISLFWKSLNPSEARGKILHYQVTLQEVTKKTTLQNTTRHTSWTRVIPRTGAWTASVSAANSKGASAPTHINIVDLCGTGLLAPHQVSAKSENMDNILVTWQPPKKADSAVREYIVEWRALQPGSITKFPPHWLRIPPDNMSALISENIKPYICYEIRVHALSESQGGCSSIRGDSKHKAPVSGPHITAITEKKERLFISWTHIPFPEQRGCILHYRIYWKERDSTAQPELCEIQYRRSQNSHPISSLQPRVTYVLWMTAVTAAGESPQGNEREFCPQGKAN

B1: anti-IL-12Rβ2 VHH clone 20454 (VHH, not shown: small tags and cut ends)
VHH: QVQLQESGGGLVQAGDSLRLSCTASGSIFAIDDMYWYRQAPGKQREFVAYITATNSANYLDSVNGRFTISRDNAENSVYLQMNSLKPEDTVVYYCNAKQIVGFQIDEYWGQGTQVTVSS
notes: tested as periplasmic extract; also called 2CRM93
B2: anti-IL-12Rβ2 VHH clone 20518 (VHH, not shown: small tags and cut ends)
VHH: B1 VHH with A14P, D16G, K43R, E75K, V91A
notes: tested as periplasmic extract; also called 2CRMS15
B3: anti-IL-12Rβ2 VHH clone 20458 (VHH, not shown: small tags and cut ends)
VHH: B1 VHH with D16G, Q44E, E75K, V91A
notes: tested as periplasmic extract; also called 3CRM45
B4: anti-IL-12Rβ2 VHH clone 20522 (VHH, not shown: small tags and cut ends)
VHH: B1 VHH with A14P, D16G, E75K, V91A, E107D
notes: tested as periplasmic extract; also called 2CRMS58
B5: anti-IL-12Rβ2 VHH clone 20519 (VHH, not shown: small tags and cut ends)
VHH: B1 VHH with D16E, E75K, V91A
notes: tested as periplasmic extract; also called 2CRMS16
B6: anti-IL-12Rβ2 VHH clone 20529 (VHH, not shown: small tags and cut ends)
VHH: B1 VHH with L11S, E75K, V91A
notes: tested as periplasmic extract; also called 3CRMS94
B7: anti-IL-12Rβ2 VHH clone 20517 (VHH, not shown: small tags and cut ends)
VHH: B1 VHH with V12A, A14P, D16G, E75K, V91A
notes: tested as periplasmic extract; also called 2CRMS10
B8: anti-IL-12Rβ2 VHH clone 20456 (VHH, not shown: small tags and cut ends)
VHH: B1 VHH with A14P, D16G, R19T, E75K, V91A
notes: tested as periplasmic extract; also called 3CRM14
B9: anti-IL-12Rβ2 VHH clone 20464 (VHH, not shown: small tags and cut ends)
VHH: B1 VHH with D16G, S21F, E75K, V91A
notes: tested as periplasmic extract; also called 3CRM86
B10: anti-IL-12Rβ2 VHH clone 20455 (VHH, not shown: small tags and cut ends)
VHH: B1 VHH with A14P, D16G, E75K, V91A, A97T
notes: tested as periplasmic extract; also called 3CRM6
B11: anti-IL-12Rβ2 VHH clone 20524 (VHH, not shown: small tags and cut ends)
VHH: B1 VHH with D16G, S62P, E75K, V91A
notes: tested as periplasmic extract; also called 3CRMS14
B12: anti-IL-12Rβ2 VHH clone 20542 (VHH, not shown: small tags and cut ends)
VHH: QVQLQESGGGLVQAGGSLRLSCAASGRTFSTYAMGWFRQAPGKEREFVAAISWSGGRTYYADSVKGRFTISRDNAKNTAYLQMSSLIPEDTAVYYCAADPADYTGSYYYQRSYDYWGQGTQVTVSS
notes: tested as periplasmic extract; also called 3CAMS12
B13: anti-IL-12Rβ2 VHH clone 20466 (VHH, not shown: small tags and cut ends)
VHH: B12 VHH with G16D, A24P, A50G, A79V, S84N, I87K, A101M, T104S, Y107L, Y109A
notes: tested as periplasmic extract; also called 2CAM2
B14: anti-IL-12Rβ2 VHH clone 20532 (VHH, not shown: small tags and cut ends)
VHH: QVQLQESGGGLVQAGGSLRLSCAASGRTFVTYAMGWFRQAPGKEREFVAAISWSGGRLYYADSVKGRFTISRDNAKNTVYLQMNSLKPEDTAVYYCAADPQDYTGRDYQRRRYDYWGQGTQVTVSS
notes: tested as periplasmic extract; also called 2CAMS19
B15: anti-IL-12Rβ2 VHH clone 20515 (VHH, not shown: small tags and cut ends)
VHH: B12 VHH with T69A, S84N, I87K, A101S, T104M, Y109G, Q110A, S112R
notes: tested as periplasmic extract; also called 3CAM79
B16: anti-IL-12Rβ2 VHH clone 20471 (VHH, not shown: small tags and cut ends)
VHH: B14 VHH with V64A
notes: tested as periplasmic extract; also called 2CAM11

Target: T1, biotinylated recombinant human IL-12Rβ2
Experiment: ELISA, periplasmic extract on biotinylated hIL-12Rβ2, signal over control wells

ELISA binding hIL-12RB2/control [ratio]	Binder
0.996	B1
1.01	B2
1.47	B3
1.01	B4
0.973	B5
0.858	B6
0.968	B7
1.24	B8
1.29	B9
1.4	B10
0.93	B11
0.849	B12
1.03	B13
0.812	B14
1.31	B15
0.991	B16

Target: T2, biotinylated recombinant mouse IL-12Rβ2
Experiment: ELISA, periplasmic extract on biotinylated mIL-12Rβ2, signal over control wells

ELISA binding mIL-12RB2/control [ratio]	Binder
5.04	B1
4.43	B2
28.4	B3
5.21	B4
5.44	B5
13.2	B6
5.47	B7
12.1	B8
5.44	B9
11.5	B10
9.62	B11
4.28	B12
8.48	B13
3.81	B14
12	B15
5.71	B16
